Reference: paper PMC3060798, “Molecular Determinants of S100B Oligomer Formation” (PLoS ONE, 2011)
Where “and” joins values, the source holds several entries; their conditions need not be identical. Identical values can stand only once. Blank lines part the entries; values can stand above or below the binder they belong to.

What was measured:
[1] = biological target: the molecule itself; test: SEC; hexamer, tetramer and dimer fractions collected after imidazol triggering, reinjected on Superdex 200 and analysed repeatedly during storage for up to 6 months in solution at 4 °C
[2] = biological target: T1, p53 target peptide (Met followed by residues 367-388 of p53, Phe 385 changed to Trp) (Phe 385 changed to Trp (stands in the printed letters)); test: other fluorescence titration; p53 peptide (0.07-1.3 µM) titrated with S100B dimer, tetramer or hexamer stock; 10 mM BisTris, 5 mM CaCl2, pH 7, 25 °C; Trp emission at 330 nm, excitation 295 nm; 1:1 binding model fitted against total S100B monomer concentration; conditions: both partners purified
T1 construct: added Met before the p53 residues; p53, C-terminal regulatory domain, residues 367-388 with Phe 385 changed to Trp; the peptide was cleaved off; also called p53 peptide; target peptide from p53; source: E. coli ER2566, purified (DEAE cellulose, chitin column, cleaved off from the intein with 50 mM DTT, G25 gel filtration)
T1 peptide: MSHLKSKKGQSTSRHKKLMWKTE

[3] = biological target: the molecule itself; test: SEC; analytical gel filtration on Superdex 200; step: dimers to tetramer, hexamer and higher oligomers; 20 mg/ml trigger-free S100B dimer with imidazol (20-900 mM, optimum 90 mM), 1 mM EDTA, 1 mM DTT, 0.25 M NaCl, pH 7.0, lyophilized, dissolved, incubated 24 h at 4 °C
[4] = biological target: the molecule itself; test: dynamic light scattering; ZetaSizer Nano-S; fractions collected directly from the Superdex200 column in 25 mM sodium carbonate with 25 mM HCl, pH 7.3

stoichiometry N [2]: 2 peptides per dimer
B1: S100B dimer (highly pure, trigger-free) (natural protein, rat, UniProt P04631 1-92, looked up)
chain: MSELEKAMVALIDVFHQYSGREGDKHKLKKSELKELINNELSHFLEEIKEQEVVDKVMETLDEDGDGECDFQEFMAFVSMVTTACHEFFEHE
notes: S100B, rat; plasmid with the rat S100B gene (gift from D. Weber); monomer 10.7 kDa, dimer 21.5 kDa as printed; Homodimer; No tag is mentioned; In rows of m1 with m1 the step meant (monomers to dimer, or dimers to tetramer and higher) is told in the assay's format; also called trigger-free S100B; trigger-free S100B dimer
stoichiometry N [1]: 2 | stoichiometry N [3]: 4 and 6

stoichiometry N [2]: 4 peptides per tetramer
B2: S100B tetramer (natural protein, rat, UniProt P04631 1-92, looked up)
chain: B1 chain
notes: S100B, rat; same chain as m1, isolated as tetramer (43.0 kDa expected); Same polypeptide as m1 in another oligomeric state; free of imidazol after gel filtration; also called tetramer fraction; source: E. coli BL21 De3 PLysS star; trigger-free dimer triggered with 90 mM imidazol, tetramer fraction collected from Superdex 200 gel filtration
stoichiometry N [4]: 4

stoichiometry N [2]: 6 peptides per hexamer
B3: S100B hexamer (natural protein, rat, UniProt P04631 1-92, looked up)
chain: B1 chain
notes: S100B, rat; same chain as m1, isolated as hexamer (64.5 kDa expected); Same polypeptide as m1 in another oligomeric state; free of imidazol after gel filtration; also called hexamer fraction; source: E. coli BL21 De3 PLysS star; trigger-free dimer triggered with 90 mM imidazol, hexamer fraction collected from Superdex 200 gel filtration
stoichiometry N [4]: 6
